In patent US20210388087A1 (Chugai, published 2021):
Substitutions are numbered along the chain they refer to. Names may count otherwise.

B1: H183/L072 VH A100fI (antibody, name in Kabat numbering, V domains shown)
VH: QVQLVESGGGLVQPGRSLRLSCAASGFTFSNAWMHWVRQAPGKGLEWVAQIKDKGNAYAAYYAPSVKGRFTISRDDSKNSIYLQMNSLKTEDTAVYYCHYVHYASASTVLPIFGVDAWGQGTTVTVSS
VL: DIVMTQSPLSLPVTPGEPASISCQASQELVHMNRNTYLHWYQQKPGQAPRLLIYKVSNRFPGVPDRFSGSGSGTDFTLKISRVEAEDVGVYYCAQGTSVPFTFGQGTKLEIK
B2: H183/L072 VH A100fL (antibody, name in Kabat numbering, V domains shown)
VH: B1 VH with I112L
VL: B1 VL
B3: H183/L072 VH A100fM (antibody, name in Kabat numbering, V domains shown)
VH: B1 VH with I112M
VL: B1 VL
B4: H183/L072 VH A100fP (antibody, name in Kabat numbering, V domains shown)
VH: B1 VH with I112P
VL: B1 VL
B5: H183/L072 VH A102I (antibody, name in Kabat numbering, V domains shown)
VH: B1 VH with I112A, A117I
VL: B1 VL
B6: H183/L072 VH A102L (antibody, name in Kabat numbering, V domains shown)
VH: B1 VH with I112A, A117L
VL: B1 VL
B7: H183/L072 VH A102M (antibody, name in Kabat numbering, V domains shown)
VH: B1 VH with I112A, A117M
VL: B1 VL
B8: H183/L072 VH D52aY (antibody, name in Kabat numbering, V domains shown)
VH: B1 VH with D53Y, I112A
VL: B1 VL
B9: H183/L072 VH D101A (antibody, name in Kabat numbering, V domains shown)
VH: B1 VH with I112A, D116A
VL: B1 VL
B10: H183/L072 VH D101I (antibody, name in Kabat numbering, V domains shown)
VH: B1 VH with I112A, D116I
VL: B1 VL
B11: H183/L072 VH D101L (antibody, name in Kabat numbering, V domains shown)
VH: B1 VH with I112A, D116L
VL: B1 VL
B12: H183/L072 VH D101M (antibody, name in Kabat numbering, V domains shown)
VH: B1 VH with I112A, D116M
VL: B1 VL
B13: H183/L072 VH F27D (antibody, name in Kabat numbering, V domains shown)
VH: B1 VH with F27D, I112A
VL: B1 VL
B14: H183/L072 VH F27E (antibody, name in Kabat numbering, V domains shown)
VH: B1 VH with F27E, I112A
VL: B1 VL
B15: H183/L072 VH F27G (antibody, name in Kabat numbering, V domains shown)
VH: B1 VH with F27G, I112A
VL: B1 VL
B16: H183/L072 VH F27H (antibody, name in Kabat numbering, V domains shown)
VH: B1 VH with F27H, I112A
VL: B1 VL
B17: H183/L072 VH F27K (antibody, name in Kabat numbering, V domains shown)
VH: B1 VH with F27K, I112A
VL: B1 VL
B18: H183/L072 VH F27L (antibody, name in Kabat numbering, V domains shown)
VH: B1 VH with F27L, I112A
VL: B1 VL
B19: H183/L072 VH F27M (antibody, name in Kabat numbering, V domains shown)
VH: B1 VH with F27M, I112A
VL: B1 VL
B20: H183/L072 VH F27N (antibody, name in Kabat numbering, V domains shown)
VH: B1 VH with F27N, I112A
VL: B1 VL
B21: H183/L072 VH F27P (antibody, name in Kabat numbering, V domains shown)
VH: B1 VH with F27P, I112A
VL: B1 VL
B22: H183/L072 VH F27Q (antibody, name in Kabat numbering, V domains shown)
VH: B1 VH with F27Q, I112A
VL: B1 VL
B23: H183/L072 VH F27R (antibody, name in Kabat numbering, V domains shown)
VH: B1 VH with F27R, I112A
VL: B1 VL
B24: H183/L072 VH F27S (antibody, name in Kabat numbering, V domains shown)
VH: B1 VH with F27S, I112A
VL: B1 VL
B25: H183/L072 VH F27T (antibody, name in Kabat numbering, V domains shown)
VH: B1 VH with F27T, I112A
VL: B1 VL
B26: H183/L072 VH F27V (antibody, name in Kabat numbering, V domains shown)
VH: B1 VH with F27V, I112A
VL: B1 VL
B27: H183/L072 VH F27W (antibody, name in Kabat numbering, V domains shown)
VH: B1 VH with F27W, I112A
VL: B1 VL
B28: H183/L072 VH F27Y (antibody, name in Kabat numbering, V domains shown)
VH: B1 VH with F27Y, I112A
VL: B1 VL
B29: H183/L072 VH F29I (antibody, name in Kabat numbering, V domains shown)
VH: B1 VH with F29I, I112A
VL: B1 VL
B30: H183/L072 VH F29L (antibody, name in Kabat numbering, V domains shown)
VH: B1 VH with F29L, I112A
VL: B1 VL
B31: H183/L072 VH F29M (antibody, name in Kabat numbering, V domains shown)
VH: B1 VH with F29M, I112A
VL: B1 VL
B32: H183/L072 VH F29P (antibody, name in Kabat numbering, V domains shown)
VH: B1 VH with F29P, I112A
VL: B1 VL
B33: H183/L072 VH F29T (antibody, name in Kabat numbering, V domains shown)
VH: B1 VH with F29T, I112A
VL: B1 VL
B34: H183/L072 VH F29V (antibody, name in Kabat numbering, V domains shown)
VH: B1 VH with F29V, I112A
VL: B1 VL
B35: H183/L072 VH F29W (antibody, name in Kabat numbering, V domains shown)
VH: B1 VH with F29W, I112A
VL: B1 VL
B36: H183/L072 VH F29Y (antibody, name in Kabat numbering, V domains shown)
VH: B1 VH with F29Y, I112A
VL: B1 VL
B37: H183/L072 VH F100gA (antibody, name in Kabat numbering, V domains shown)
VH: B1 VH with I112A, F113A
VL: B1 VL
B38: H183/L072 VH F100gI (antibody, name in Kabat numbering, V domains shown)
VH: B1 VH with I112A, F113I
VL: B1 VL
B39: H183/L072 VH F100gL (antibody, name in Kabat numbering, V domains shown)
VH: B1 VH with I112A, F113L
VL: B1 VL
B40: H183/L072 VH F100gM (antibody, name in Kabat numbering, V domains shown)
VH: B1 VH with I112A, F113M
VL: B1 VL
B41: H183/L072 VH G26A (antibody, name in Kabat numbering, V domains shown)
VH: B1 VH with G26A, I112A
VL: B1 VL
B42: H183/L072 VH G26D (antibody, name in Kabat numbering, V domains shown)
VH: B1 VH with G26D, I112A
VL: B1 VL
B43: H183/L072 VH G26E (antibody, name in Kabat numbering, V domains shown)
VH: B1 VH with G26E, I112A
VL: B1 VL
B44: H183/L072 VH G26F (antibody, name in Kabat numbering, V domains shown)
VH: B1 VH with G26F, I112A
VL: B1 VL
B45: H183/L072 VH G26H (antibody, name in Kabat numbering, V domains shown)
VH: B1 VH with G26H, I112A
VL: B1 VL
B46: H183/L072 VH G26I (antibody, name in Kabat numbering, V domains shown)
VH: B1 VH with G26I, I112A
VL: B1 VL
B47: H183/L072 VH G26L (antibody, name in Kabat numbering, V domains shown)
VH: B1 VH with G26L, I112A
VL: B1 VL

biological target: T1, Human CD137 ECD (human); assay: single mutant vs template dBBDu183H
T1 construct: also called 4-1BB
T1 sequence (chain, as listed by the source limits assumed): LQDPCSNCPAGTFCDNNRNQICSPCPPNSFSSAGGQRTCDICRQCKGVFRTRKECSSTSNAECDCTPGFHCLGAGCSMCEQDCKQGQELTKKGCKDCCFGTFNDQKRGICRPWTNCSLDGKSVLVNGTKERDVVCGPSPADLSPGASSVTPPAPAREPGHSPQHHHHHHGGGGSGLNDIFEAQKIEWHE

Binder	fold change of affinity [fold]
B1	0
B2	0
B3	0
B4	0.3
B5	0
B6	0.9
B7	0
B8	0
B9	2
B10	0
B11	0
B12	0
B13	0.5
B14	0.2
B15	0.4
B16	0.3
B17	0.2
B18	0.5
B19	0.9
B20	0.3
B21	0.3
B22	0.2
B23	0.2
B24	0.3

Binder	fold change of affinity [fold]
B25	0.3
B26	0.3
B27	0.3
B28	0.4
B29	0.3
B30	0.3
B31	0.3
B32	0.1
B33	0.1
B34	0.1
B35	0.1
B36	0.2
B37	0.5
B38	1
B39	1.2
B40	0.6
B41	0.4
B42	0.8
B43	0.5
B44	0.3
B45	0.4
B46	0.3
B47	0.3
